Experimental data reported in patent US7871610B2, “Antibodies to Tie1 ectodomain” (Dyax Corp., priority 2003, dated 2011).

Tests used:
[1] = molecular target: T1, recombinant human Tie1-Fc (Homo sapiens, UniProt P35590); experiment: ELISA on recombinant human Tie-1-Fc; type: binding; conditions: soluble Fab 5 or 1 μg per 100 μl; 500 or 50 ng antigen per well
T1 construct: selected against the Tie1 extracellular domain fused to human Fc or to a histidine purification tag
T1 sequence (P35590 22-759 limits assumed): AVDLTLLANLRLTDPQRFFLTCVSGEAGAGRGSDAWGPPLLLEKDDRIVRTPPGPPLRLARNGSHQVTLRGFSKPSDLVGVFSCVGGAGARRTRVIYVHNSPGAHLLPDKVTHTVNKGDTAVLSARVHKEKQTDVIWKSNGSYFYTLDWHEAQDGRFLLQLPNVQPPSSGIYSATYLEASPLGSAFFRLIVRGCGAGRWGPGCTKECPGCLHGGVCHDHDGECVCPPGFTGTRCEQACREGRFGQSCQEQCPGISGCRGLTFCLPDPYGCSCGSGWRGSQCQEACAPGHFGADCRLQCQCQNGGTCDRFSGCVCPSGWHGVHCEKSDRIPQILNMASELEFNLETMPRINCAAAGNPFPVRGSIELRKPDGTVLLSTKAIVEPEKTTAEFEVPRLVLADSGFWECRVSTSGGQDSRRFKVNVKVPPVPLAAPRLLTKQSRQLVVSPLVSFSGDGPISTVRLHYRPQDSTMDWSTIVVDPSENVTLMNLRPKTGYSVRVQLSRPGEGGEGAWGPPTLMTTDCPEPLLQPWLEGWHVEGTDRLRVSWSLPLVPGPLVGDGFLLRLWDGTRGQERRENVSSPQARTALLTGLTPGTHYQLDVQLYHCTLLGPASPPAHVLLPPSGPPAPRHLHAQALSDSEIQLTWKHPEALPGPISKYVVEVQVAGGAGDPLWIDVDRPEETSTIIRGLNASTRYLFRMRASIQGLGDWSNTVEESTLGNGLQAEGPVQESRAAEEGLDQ
Experimental: To evaluate if the conversion of any of the somatic mutations in the framework of E3 back to germline residues had any effect on binding activity the soluble Fabs were produced. The soluble expression vector containing the parental E3 Fab and the germlined E3 Fab construct were grown overnight at 30° C. in 2×TY broth containing 100 μg/ml ampicillin and 2% glucose and use 4 ml of this overnight culture to inoculate 400 ml of 2×TY broth containing 100 μg/ml ampicillin and 0.1% glucose. Cells were grow at 37° C. until an OD600 of 0.8-1.0, 1 mM IPTG was added and the culture was maintained at 30° C. for 4 hours. The cultures were spun down at 4,000 rpm for 15 min at 4° C. […] Dialyze against PBS using dialysis cassettes (SLIDE-A-LYSER™ Dialysis Cassettes, MWCO 10,000, Pierce, cat. no. 66380) and determine the protein concentration from the absorbance at 280 nm assuming that a 1 mg/ml solution has an absorbance of 0.86. The quality of the preparations can be analyzed by reducing and non-reducing SDS-PAGE.
Wells of an IMMULON™ 2 HB plate coated overnight with 500 ng or 50 ng of purified recombinant human Tie-1-Fc target antigen per 100 microliters 0.1 M sodium bicarbonate buffer, pH 8.5. […] After washing the wells seven times 100 microliters TMB-H2O2 solution was added to each well and the plate read at 630 nm in an ELISA. […]

Tie-1 = experiment: Immunohistochemistry of mouse SW480 xenograft tumor sections; conditions: biotinylated E3 IgG1 10 μg/ml, paraffin sections
Experimental: We determined if antibody E3 binds to mouse endothelial cells in mouse xenographs. Immunohistochemistry was performed with biotinylated E3 IgG1 (a,z allotype) antibody and control antibodies anti-CD31 (endothelial cell specific marker) and anti-PCNA (proliferating cell nuclear antigen). Formalin-fixed tumor tissues from a mouse-xenograph containing SW480 cells (ATCC) were tested for the binding pattern of the human anti-Tie1 antibody E3. 5 μm sections of paraffin embedded tissues were deparaffinized, rehydrated and pretreated with warm the citrate buffer (0.01 M sodium citrate, pH6 at 95° C.) for 45 min. The slides were cooled down in fresh citrate buffer for 20 min and rinsed with distilled water. The slides were hydrogen peroxide treated, (0.3% H2O2 in PBS), and preincubated with PBS, 5% FCS, 5% heat inactivated human serum (HS) for 1 hour. Between antibody incubations slides were washed 3 times 5 minutes in PBS. Biotinylated antibodies E3 and A2-SV were diluted to a concentration of 10 μg/ml in PBS, 10% HS and incubated for 1 hour at RT. Slides were then incubated with an avidin-HRP (Dako) for 30 minutes at room temperature. Staining was detected by AEC (Vector Laboratories, Burlingame) and H2O2. The peroxidase reaction was stopped with water and slides were counter-stained with haematoxylin. The tissues were evaluated for their binding reactivity.

B1: E3: human anti-Tie1 antibody from Fab phage library; HC SEQ ID NO:114, LC SEQ ID NO:116 (antibody, V domains shown)
VH: EVQLLESGGGLVQPGGSLRLSCAASGFTFSMYGMVWVRQAPGKGLEWVSVISPSGGNTGYADSVKGRFTISRDNSKNTLYLQVNSLRAEDTAVYYCARAPRGYSYGYYYWGQGTLVTVSSASTKGPSVFPLAPSSKSTSGG
VL: DIQMTQSPLSLSASVGDRVTITCRASQGIGHYLAWYQQKPGKVPKLLIYTASTLQSGVPSRFSGSGSGTDFTLTINSLQPEDVATYYCQQFNSYPHTFGQGTRLDIK
modifications: Synthetically generated peptide
binding to recombinant human Tie-1-Fc in ELISA [1]: bound | staining pattern in mouse xenograft tumor tissue (Tie-1): consistent with staining of mouse endothelial cell Tie-1
